Test results: patent US20260258115A1 (MAPP BIOPHARMACEUTICAL, published 2026)

B1: ADI-25479 (antibody, V domains shown)
VH: EVQLVESGGGLVKPGGSLRLSCAASGFTFSSYSMNWVRQAPGKGLEWVSSISSSSSYIYYADSVKGRFTISRDNAKNSLYLQMNSLRAEDTAVYYCARGGYSYGAYYYYYMDVWGKGTTVTVSS
VL: QSVLTQPPSVSGAPGQRVTISCTGSSSNIGAGYDVHWYQQLPGTAPKLLIYGNSNRPSGVPDRFSGSKSGTSASLAITGLQAEDEADYYCQSYDSSLSGYWVFGGGTKLTVL
notes: full-length IgG
B2: ADI-25480 (antibody, V domains shown)
VH: EVQLVESGGGLVKPGGSLRLSCAASGFTFSSYSMNWVRQAPGKGLEWVSSISSSSSYIYYADSVKGRFTISRDNAKNSLYLQMNSLRAEDTAVYYCARGGYSYGAYYYYYMDVWGKGTTVTVSS
VL: QSVLTQPPSVSGAPGQRVTISCTGSSSNIGAGYDVHWYQQLPGTAPKLLIYGNSNRPSGVPDRFSGSKSGTSASLAITGLQAEDEADYYCQSYDSSLSGYWVFGGGTKVTVL
notes: full-length IgG; also called Ab 430
B3: ADI-24814 (antibody, V domains shown)
VH: EVQLLESGGGVVQPGRSLRLSCAASGFTFNSYTMHWVRQAPGKGLEWVAVISYDGSNKYYADSVKGRFTISRDNSKNTLYLQMNSLRAEDTAVYYCARGRPYDFWSGYYTDYYYYMDVWGKGTTVTVSS
VL: EIVLTQSPGTLSLSPGERATLSCRASQSVYSNYLAWYQQKPGQAPRLLIYGASSRATGIPDRFSGSGSGTDFTLTISRLEPEDFAVYYCQQCGSSWTFGQGTKVEIK
notes: full-length IgG
B4: ADI-24827 (antibody, V domains shown)
VH: EVQLVESGGGLVQPGGSLRLSCAASGFTVSSNYMSWVRQAPGKGLEWVSVIYSDGSTYYADSVKGRFTISRHNSKNTLYLQMNSLRAEDTAVYYCARCSTYGDYIDWYFDLWGRGTLVTVSS
VL: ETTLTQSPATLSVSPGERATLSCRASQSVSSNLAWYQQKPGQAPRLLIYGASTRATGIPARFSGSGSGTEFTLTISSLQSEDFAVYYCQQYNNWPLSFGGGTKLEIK
notes: full-length IgG
B5: ADI-19427 (antibody, V domains shown)
VH: EVQLVESGGGLVKPGGSLRLSCAASGFTFSSYSMNWVRQAPGKGLEWVSSISSSSSFISYADSVKGRFTISRDSAKNSLYLQMNSLRAEDTAVYYCARDHPNWNGLAYFDYWGQGTLVTVSS
VL: QSVLTQPPSISGAPGQRVTISCTGSSSNIGAGYDVQWHQQLPGTAPKLLIYGNSNRPSGVPDRFSGSKSGTSASLAITGLQAEDEADYYCQSYDSSLSGWVFGGGTKLTVL
notes: full-length IgG
B6: ADI-24859 (antibody, V domains shown)
VH: EVQLLESGGGLVKPGGSLRLSCAASGFTFSSYSMNWVRQAPGKGLEWVSSISSSSSYIYYADSVKGRFTISRDNAKNSLYLQMNSLRAEDTAVYYCARDGSPINWVSPFPFDYWGQGTLVTVSS
VL: QPVLTQPPSVSGAPGQRVTISCTGSSSNIGAGYDVHWYQQLPGTAPKLLIYGNSNRPSGVPDRFSGSKSGTSASLAITGLQAEDEADYYCQSYDSSLSGSVFGGGTQLTVL
notes: full-length IgG; also called Ab 419
B7: ADI-24805 (antibody, V domains shown)
VH: QVQLVQSGGGLVKPGGSLRLSCAASGFTFSSYSMNWVRQAPGKGLEWVSSISSSSSYIYYADSVKGRFTISRDNAKNSLYLQMNSLRAEDTAVYYCAREGYSSSSGYYYYMDVWGKGTTVTVSS
VL: QSVLTQPPSVSGAPGQRVTISCTGSSSNIGAGYDVHWYQQLPGTAPKLLIYGNSNRPSGVPDRFSGSKSGTSASLAITGLQAEDEADYYCQSYDSSLSGSVFGTGTKVTVL
notes: full-length IgG; also called Ab 370
B8: ADI-24792 (antibody, V domains shown)
VH: EVQLVESGGGLVKPGGSLRLSCAASGFIFSDYYMSWIRQAPGKGLEWVSNISGGSSFTNYADSVKGRFTISRDNAKNSLYLQMNSLRAEDTAVYYCARDLGYCSSNSCLDAFDIWGQGTTVTVSS
VL: QSVLTQPPSVSGAPGQRVTISCTGSSSNIGAGYDVHWYQQLPGTAPKLLIYGNTNRPSGVPDRFSGSRSGTSASLAITGLQAEDEADYYCQSYDSSLSGSLFGGGTKVTVL
notes: full-length IgG
B9: ADI-25478 (antibody, V domains shown)
VH: EVQLLESGGGLVKPGGSLRLSCAASGFTFSSYSMNWVRQAPGKGLEWVSSISSSSSYIYYADSVKGRFTISRDNAKNSLYLQMNSLRAEDTAVYYCARLDYSNYYYYMDVWGKGTTVTVSS
VL: QPVLTQPPSVSGAPGQRVTISCTGSSSNIGAGYDVHWYQQLPGTAPKLLIYGNSNRPSGVPDRFSGSKSGTSASLAITGLQAEDEADYYCQSYDSSLSGYVFGTGTKLTVL
notes: full-length IgG
B10: ADI-19509 (antibody, V domains shown)
VH: EVQLVESGGGLVKPGGSLRLSCAASGFTFSSYSMNWVRQAPGKGLEWVSSISSSSSYIYYADSVKGRFTISRDNAKNSLYLQMNSLRAEDTAVYYCASSRRSLTGDRGGWFDPWGQGTLVTVSS
VL: QSVLTQPPSVSGAPGQRVTISCTGSSSNIGAGYDVHWYQQLPGTAPKLLIYGNSNRPSGVPDRFSGSKSGTSASLAITGLQAEDEADYYCQSYDSSLSGWVFGGGTKLTVL
notes: full-length IgG
B11: ADI-19431 (antibody, V domains shown)
VH: EVQLVESGGGLVKPGGSLRLSCAASGFTFSSYSMNWVRQAPGKGLEWVSSISSSSSYIYYADSVKGRFTISRDNAKNSLYLQMNSLRAEDTAVYYCARELYDYVWGSYRDYWGQGTLVTVSS
VL: QPGLTQPPSVSGAPGQRVTISCTGSSSNIGAGYDVHWYQQLPGTAPKLLIYGNSNRPSGVPDRFSGSKSGTSASLAITGLQAEDEADYYCQSYDSSLSGSVFGGGTKVTVL
notes: full-length IgG
B12: ADI-25484 (antibody, V domains shown)
VH: EVQLVESGGGLVKPGGSLRLSCAASGFTFSSYSMNWVRQAPGKGLEWVSSISSSSSYIYYADSVKGRFTISRDNAKNSLYLQMNSLRAEDTAVYYCARSIAVAGTGYGMDVWGQGTTVTVSS
VL: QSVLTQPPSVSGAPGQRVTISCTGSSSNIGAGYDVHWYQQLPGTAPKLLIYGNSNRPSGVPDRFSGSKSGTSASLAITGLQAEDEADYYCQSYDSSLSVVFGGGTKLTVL
notes: full-length IgG
B13: ADI-14336 (antibody, V domains shown)
VH: EVQLLESGGEVKKPGASVKVSCKASGYTFTNYGISWVRQAPGQGLEWMGWISAYNGNTNYAQKLQGRVTMTTDTSTSTAYMEVRRLRSDDTAVYYCAREPPVIAAGDFQHWGQGTLVTVSS
VL: DIVMTQTPLSLPVTLGQPASISCRSSQSLVHSDTNIYLSWFQQRPGQSPRRLIYKVSNRDSGVPDRFSGSGSGTDFTLRISRVEAEDVGVYYCMQGTHWPPDFGQGTRLEIK
notes: full-length IgG; also called Ab 4
B14: ADI-19459 (antibody, V domains shown)
VH: QVQLVESGGGLVQPGGSLRLSCAASGFTVSSNYMSWVRQAPGKGLEWVSVIYSGGSTYYADSVKGRFTISRDNSKNTLYLQMNSLRAEDTAVYYCAREALGMDHWYFDLWGRGTLVTVSS
VL: SYELMQPPSVSVAPGKTARITCGGNNIGSKSVHWYQQKPGQAPVLVVYDDSDRPSGIPERFSGSNSGNTATLTISRVEAGDEADYYCQVWDSSSDHPVFGGGTKVTVL
notes: full-length IgG
B15: ADI-14334 (antibody, V domains shown)
VH: EVQLVESGGGLVKPGGSLRLSCAASGVTVSSYYMTWVRQAPGKGLEFISDISSSSTYTNYADSVKGRFTISRDNAKSSLYLQMNNLRAEDTAVYYCARLGITVTGVGYFDLWGRGTLVTVSS
VL: QPGLTQPPSVSGAPGQRVTISCTGSSSNIGAGYDVHWYQQLPGTAPKLLIHDNNNRPSGVPDRFSGSKSGTSASLAITGLQVEDEADYYCQSYDSSLSNYVFGTGTKLTVL
notes: full-length IgG; also called Ab 2
B16: ADI-19510 (antibody, V domains shown)
VH: EVQLVESGGGLVKPGGSLRLSCAASGFSLSSYYMNWVRQAPGKGLEWVSSISSSSTYINYADSVKGRFTISRDNAKNSLYLQMNSLRAEDTAVYYCARGGSITIFGVVFDSWGQGTLVTVSS
VL: SYELTQPPSVSGAPGQRVTISCTGTSSNIGAGYDVHWYQQLPGTAPKLLIYVNSNRPSGVPDRFSGSKSGTSASLAITGLQAEDEADYYCQSYDSSLSGGVFGTGTKVTVL
notes: full-length IgG; also called Ab 210
B17: ADI-24812 (antibody, V domains shown)
VH: EVQLVESGGGLVQPGGSLRLSCAASGFSFSTYAMSWVRQAPGKGLEWVSAISGGGGSTYYADSVKGRFTISRDNSKNTLYLQVNSLRAEDTAVYYCARGGYCSSDSCYPFDFWGQGTLVTVSS
VL: QPVLTQPPSVSVSPGQTAMITCSGDALPKQYAYWYQQKPGQAPVLVIYKDSERPSGIPERFSGSSSGTTVTLTISGVQAEDEADYYCQSADNSGSYAVFGGGTQLTVL
notes: full-length IgG
B18: ADI-19458 (antibody, V domains shown)
VH: EVQLVESGGGRVKPGGSLRLSCAASGFTFRSYSMNWVRQAPGKGLEWVSSISSSSSYINYADSVKGRFTISRDNAKNSLYLQMNSLRAEDTAVYYCARDGSGMTIFGVVIDYWGQGTLVTVSS
VL: QSVLTQPPSVSGAPGQRVTISCTGSSSNIGAGYDVHWYQQLPGTAPKLLIYGNSNRPSGVPDRFSGSKSGTSASLAITGLQAEDEADYYCQSYDRSLTVVFGGGTKLTVL
notes: full-length IgG

How the values were obtained:
[1] = target: T1, RSV postfusion F (postF), subtype A (respiratory syncytial virus subtype A, UniProt P03420 26-513); assay: BLI
T1 construct: also called Postfusion subtype A; F deltaFP

[2] = target: T2, RSV prefusion F (preF), subtype B (respiratory syncytial virus subtype B); assay: BLI, IgG
T2 construct: also called Prefusion subtype B

[3] = target: RSV F on RSV subtype A virus (mKate-RSV A2) (respiratory syncytial virus A2, UniProt P03420 26-574); assay: cell-based or functional assay
[4] = target: RSV F on RSV subtype B virus (mKate-RSV B 18537) (respiratory syncytial virus B 18537, UniProt P13843 26-574); assay: cell-based or functional assay

Row | Binder | binding result [1] | Kd [2] [nM] | Neut IC50 subtype A [3] [µg/mL] | Neut IC50 subtype B [4] [µg/mL]
1 | B1 | no binding | 4.29 | 0.24 | 0.29
2 | B2 | no binding | 4.27 | 0.17 | 0.17
3 | B3 | no binding | 2.39 | 0.73 | 0.32
4 | B4 | no binding | 6.62 | 0.02 | –
5 | B5 | no binding | 0.5 | 0.01 | 0.03
6 | B6 | no binding | 4.95 | 0.58 | –
7 | B7 | no binding | 4.88 | 0.21 | 0.71
8 | B8 | no binding | 1.83 | 0.27 | 0.19
9 | B9 | no binding | 6.43 | 2.18 | 3.52
10 | B10 | no binding | 1.58 | 3.42 | 1.56
11 | B11 | no binding | 3.16 | 4.35 | 0.17
12 | B12 | no binding | 18.4 | 15.3 | 8.58
13 | B13 | – | 2.65 | 0.07 | 0.09
14 | B14 | – | 1.45 | 0.05 | 0.1
15 | B15 | – | 0.622 | 0.05 | 0.11
16 | B16 | no binding | 0.239 | 0.16 | 0.83
17 | B17 | no binding | 7.58 | 0.18 | –
18 | B18 | no binding | 0.243 | 0.04 | 0.07
